Laboratory results as given in patent US20110171681.

Tests used:
[1] = molecular target: cyclin-dependent kinase inhibitor p57(kip2) (UniProt P49919)
[2] = molecular target: cell surface beta1,4-galactosyltransferase I (GalT), mouse, endogenous (UniProt P15535)

His tagged GTAP
in vitro ubiquitination of p57 with biotinylated ubiquitin [1]: GTAP increased the ubiquitination of p57 only in the presence of E1
in vitro ubiquitination of immunoprecipitated GalT [2]: Surprisingly GTAP had no effect on immunoprecipitated GalT in an in vitro ubiquitin system
